Assay results reported in US20220204580A1 (AstraZeneca / MedImmune, published 2022).
Numbered stars: 1 amine (or outer) side, 2 acyl side, 3 side chain; on linkers, the order of the positions; unused ones are H or OH. Bridge positions count the residues as written; N and C are the ends. Square brackets hold non-standard residues; d marks the D form. Side chains are listed from the residue outwards. Ends that are not written are not given here. * marks the point of attachment. C18 diacid = O=C(O)CCCCCCCCCCCCCCCCC(=O)*; γGlu = O=C(O)[C@H](CCC(=O)[*:2])N[*:1]; AEEA = NCCOCCOCC(=O)O; Aib = CC(C)(N)C(=O)O

B1: Peptide 39 (SEQ ID NO: 39) (peptide)
peptide: K([γGlu-C18 diacid])KCNTATCATQRLANFLEHSS[Aib]NFGPILPPTNVGSNTY-NH2
modifications: disulfide 3-8; N-terminus assumed
SMILES: CC[C@H](C)[C@H](NC(=O)[C@@H]1CCCN1C(=O)CNC(=O)[C@H](Cc1ccccc1)NC(=O)[C@H](CC(N)=O)NC(=O)C(C)(C)NC(=O)[C@H](CO)NC(=O)[C@H](CO)NC(=O)[C@H](Cc1c[nH]cn1)NC(=O)[C@H](CCC(=O)O)NC(=O)[C@H](CC(C)C)NC(=O)[C@H](Cc1ccccc1)NC(=O)[C@H](CC(N)=O)NC(=O)[C@H](C)NC(=O)[C@H](CC(C)C)NC(=O)[C@H](CCCNC(=N)N)NC(=O)[C@H](CCC(N)=O)NC(=O)[C@@H](NC(=O)[C@H](C)NC(=O)[C@@H]1CSSC[C@H](NC(=O)[C@H](CCCCN)NC(=O)[C@@H](N)CCCCNC(=O)CC[C@H](NC(=O)CCCCCCCCCCCCCCCCC(=O)O)C(=O)O)C(=O)N[C@@H](CC(N)=O)C(=O)N[C@@H]([C@@H](C)O)C(=O)N[C@@H](C)C(=O)N[C@@H]([C@@H](C)O)C(=O)N1)[C@@H](C)O)C(=O)N[C@@H](CC(C)C)C(=O)N1CCC[C@H]1C(=O)N1CCC[C@H]1C(=O)N[C@H](C(=O)N[C@@H](CC(N)=O)C(=O)N[C@H](C(=O)NCC(=O)N[C@@H](CO)C(=O)N[C@@H](CC(N)=O)C(=O)N[C@H](C(=O)N[C@@H](Cc1ccc(O)cc1)C(N)=O)[C@@H](C)O)C(C)C)[C@@H](C)O
B2: Peptide 42 (SEQ ID NO: 42) (peptide)
peptide: K([γGlu-C18 diacid])KCNTATCATQRLANFLVHSS[Aib]NFGPILPPTNVGSETY-NH2
modifications: disulfide 3-8; N-terminus assumed
SMILES: CC[C@H](C)[C@H](NC(=O)[C@@H]1CCCN1C(=O)CNC(=O)[C@H](Cc1ccccc1)NC(=O)[C@H](CC(N)=O)NC(=O)C(C)(C)NC(=O)[C@H](CO)NC(=O)[C@H](CO)NC(=O)[C@H](Cc1c[nH]cn1)NC(=O)[C@@H](NC(=O)[C@H](CC(C)C)NC(=O)[C@H](Cc1ccccc1)NC(=O)[C@H](CC(N)=O)NC(=O)[C@H](C)NC(=O)[C@H](CC(C)C)NC(=O)[C@H](CCCNC(=N)N)NC(=O)[C@H](CCC(N)=O)NC(=O)[C@@H](NC(=O)[C@H](C)NC(=O)[C@@H]1CSSC[C@H](NC(=O)[C@H](CCCCN)NC(=O)[C@@H](N)CCCCNC(=O)CC[C@H](NC(=O)CCCCCCCCCCCCCCCCC(=O)O)C(=O)O)C(=O)N[C@@H](CC(N)=O)C(=O)N[C@@H]([C@@H](C)O)C(=O)N[C@@H](C)C(=O)N[C@@H]([C@@H](C)O)C(=O)N1)[C@@H](C)O)C(C)C)C(=O)N[C@@H](CC(C)C)C(=O)N1CCC[C@H]1C(=O)N1CCC[C@H]1C(=O)N[C@H](C(=O)N[C@@H](CC(N)=O)C(=O)N[C@H](C(=O)NCC(=O)N[C@@H](CO)C(=O)N[C@@H](CCC(=O)O)C(=O)N[C@H](C(=O)N[C@@H](Cc1ccc(O)cc1)C(N)=O)[C@@H](C)O)C(C)C)[C@@H](C)O
B3: Peptide 45 (SEQ ID NO: 45) (peptide)
peptide: K([AEEA-AEEA-γGlu-C18 diacid])CNTATCATQRLANFLRHSS[Aib]NFGPILPPTEVGSNTY-NH2
modifications: disulfide 2-7; N-terminus assumed
SMILES: CC[C@H](C)[C@H](NC(=O)[C@@H]1CCCN1C(=O)CNC(=O)[C@H](Cc1ccccc1)NC(=O)[C@H](CC(N)=O)NC(=O)C(C)(C)NC(=O)[C@H](CO)NC(=O)[C@H](CO)NC(=O)[C@H](Cc1c[nH]cn1)NC(=O)[C@H](CCCNC(=N)N)NC(=O)[C@H](CC(C)C)NC(=O)[C@H](Cc1ccccc1)NC(=O)[C@H](CC(N)=O)NC(=O)[C@H](C)NC(=O)[C@H](CC(C)C)NC(=O)[C@H](CCCNC(=N)N)NC(=O)[C@H](CCC(N)=O)NC(=O)[C@@H](NC(=O)[C@H](C)NC(=O)[C@@H]1CSSC[C@H](NC(=O)[C@@H](N)CCCCNC(=O)COCCOCCNC(=O)COCCOCCNC(=O)CC[C@H](NC(=O)CCCCCCCCCCCCCCCCC(=O)O)C(=O)O)C(=O)N[C@@H](CC(N)=O)C(=O)N[C@@H]([C@@H](C)O)C(=O)N[C@@H](C)C(=O)N[C@@H]([C@@H](C)O)C(=O)N1)[C@@H](C)O)C(=O)N[C@@H](CC(C)C)C(=O)N1CCC[C@H]1C(=O)N1CCC[C@H]1C(=O)N[C@H](C(=O)N[C@@H](CCC(=O)O)C(=O)N[C@H](C(=O)NCC(=O)N[C@@H](CO)C(=O)N[C@@H](CC(N)=O)C(=O)N[C@H](C(=O)N[C@@H](Cc1ccc(O)cc1)C(N)=O)[C@@H](C)O)C(C)C)[C@@H](C)O
B4: Peptide 46 (SEQ ID NO: 46) (peptide)
peptide: K([γGlu-C18 diacid])KCNTATCATQRLAHFLVHSS[Aib]NFGPILPPTNVGSNTY-NH2
modifications: disulfide 3-8; N-terminus assumed
SMILES: CC[C@H](C)[C@H](NC(=O)[C@@H]1CCCN1C(=O)CNC(=O)[C@H](Cc1ccccc1)NC(=O)[C@H](CC(N)=O)NC(=O)C(C)(C)NC(=O)[C@H](CO)NC(=O)[C@H](CO)NC(=O)[C@H](Cc1c[nH]cn1)NC(=O)[C@@H](NC(=O)[C@H](CC(C)C)NC(=O)[C@H](Cc1ccccc1)NC(=O)[C@H](Cc1c[nH]cn1)NC(=O)[C@H](C)NC(=O)[C@H](CC(C)C)NC(=O)[C@H](CCCNC(=N)N)NC(=O)[C@H](CCC(N)=O)NC(=O)[C@@H](NC(=O)[C@H](C)NC(=O)[C@@H]1CSSC[C@H](NC(=O)[C@H](CCCCN)NC(=O)[C@@H](N)CCCCNC(=O)CC[C@H](NC(=O)CCCCCCCCCCCCCCCCC(=O)O)C(=O)O)C(=O)N[C@@H](CC(N)=O)C(=O)N[C@@H]([C@@H](C)O)C(=O)N[C@@H](C)C(=O)N[C@@H]([C@@H](C)O)C(=O)N1)[C@@H](C)O)C(C)C)C(=O)N[C@@H](CC(C)C)C(=O)N1CCC[C@H]1C(=O)N1CCC[C@H]1C(=O)N[C@H](C(=O)N[C@@H](CC(N)=O)C(=O)N[C@H](C(=O)NCC(=O)N[C@@H](CO)C(=O)N[C@@H](CC(N)=O)C(=O)N[C@H](C(=O)N[C@@H](Cc1ccc(O)cc1)C(N)=O)[C@@H](C)O)C(C)C)[C@@H](C)O

molecular target: T1, human calcitonin receptor (human, UniProt P30988 25-474); test: cell-based or functional assay
T1 sequence (looked up): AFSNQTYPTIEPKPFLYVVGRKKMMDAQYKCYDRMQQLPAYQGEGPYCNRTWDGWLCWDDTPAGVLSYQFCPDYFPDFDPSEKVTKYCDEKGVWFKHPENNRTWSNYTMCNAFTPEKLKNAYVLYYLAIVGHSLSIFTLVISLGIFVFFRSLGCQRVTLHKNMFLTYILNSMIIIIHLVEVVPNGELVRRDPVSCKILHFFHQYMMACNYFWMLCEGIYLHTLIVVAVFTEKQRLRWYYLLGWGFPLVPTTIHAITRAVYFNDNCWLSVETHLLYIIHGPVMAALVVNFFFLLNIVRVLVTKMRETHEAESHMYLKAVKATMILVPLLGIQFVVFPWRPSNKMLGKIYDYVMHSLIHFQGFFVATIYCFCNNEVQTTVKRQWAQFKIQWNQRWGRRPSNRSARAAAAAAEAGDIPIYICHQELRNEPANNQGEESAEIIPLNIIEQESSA

Row | Binder | EC50 (cAMP production)
1 | B1 | 10400 pM
2 | B2 | 2950 pM
3 | K([AEEA-AEEA-γGlu-C18 diacid])CNTATCATQRLANFLVHSSNNFGPILPPTNVGSNTY-NH2 (disulfide 2-7) [Peptide 6 (SEQ ID NO: 6)] | 310 pM
4 | B3 | 16900 pM
5 | B4 | 362 pM

molecular target: T2, human amylin receptor (calcitonin receptor co-expressed with receptor activity modifying protein, RAMP3) (human, UniProt P30988 25-474; O60896 24-148); test: cell-based or functional assay
T2 sequence (looked up) 1: T1 sequence (looked up)
T2 sequence (looked up) 2: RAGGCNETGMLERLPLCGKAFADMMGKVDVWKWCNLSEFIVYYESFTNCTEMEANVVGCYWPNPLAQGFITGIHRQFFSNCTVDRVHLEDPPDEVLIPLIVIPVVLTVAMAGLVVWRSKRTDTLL

Row | Binder | EC50 (cAMP production) | Ratio (EC50 hCTR / EC50 hAMYR3)
6 | B1 | 1050 pM | 10
7 | B2 | 470 pM | 6
8 | K([AEEA-AEEA-γGlu-C18 diacid])CNTATCATQRLANFLVHSSNNFGPILPPTNVGSNTY-NH2 (disulfide 2-7) [Peptide 6 (SEQ ID NO: 6)] | 68 pM | 5
9 | B3 | 588 pM | 29
10 | B4 | 109 pM | 3
